The labels stand for the following.
B5: MED14 (endogenous) (natural protein)
chain: not shown

In assay [1] the target is T1, MED13 (endogenous) (human (endogenous in 293-F), UniProt Q9UHV7 1-2174). Kind of assay: cross-linking.
For a further assay, the target named is MED13L (endogenous) (human (endogenous in 293-F), UniProt Q71F56 1-2210). Kind of assay: cross-linking.
The target of the next assay is MED12 (endogenous) (human (endogenous in 293-F), UniProt Q93074 1-2177). Kind of assay: cross-linking.
Sequence of MED12 (endogenous) (Q93074 whole entry): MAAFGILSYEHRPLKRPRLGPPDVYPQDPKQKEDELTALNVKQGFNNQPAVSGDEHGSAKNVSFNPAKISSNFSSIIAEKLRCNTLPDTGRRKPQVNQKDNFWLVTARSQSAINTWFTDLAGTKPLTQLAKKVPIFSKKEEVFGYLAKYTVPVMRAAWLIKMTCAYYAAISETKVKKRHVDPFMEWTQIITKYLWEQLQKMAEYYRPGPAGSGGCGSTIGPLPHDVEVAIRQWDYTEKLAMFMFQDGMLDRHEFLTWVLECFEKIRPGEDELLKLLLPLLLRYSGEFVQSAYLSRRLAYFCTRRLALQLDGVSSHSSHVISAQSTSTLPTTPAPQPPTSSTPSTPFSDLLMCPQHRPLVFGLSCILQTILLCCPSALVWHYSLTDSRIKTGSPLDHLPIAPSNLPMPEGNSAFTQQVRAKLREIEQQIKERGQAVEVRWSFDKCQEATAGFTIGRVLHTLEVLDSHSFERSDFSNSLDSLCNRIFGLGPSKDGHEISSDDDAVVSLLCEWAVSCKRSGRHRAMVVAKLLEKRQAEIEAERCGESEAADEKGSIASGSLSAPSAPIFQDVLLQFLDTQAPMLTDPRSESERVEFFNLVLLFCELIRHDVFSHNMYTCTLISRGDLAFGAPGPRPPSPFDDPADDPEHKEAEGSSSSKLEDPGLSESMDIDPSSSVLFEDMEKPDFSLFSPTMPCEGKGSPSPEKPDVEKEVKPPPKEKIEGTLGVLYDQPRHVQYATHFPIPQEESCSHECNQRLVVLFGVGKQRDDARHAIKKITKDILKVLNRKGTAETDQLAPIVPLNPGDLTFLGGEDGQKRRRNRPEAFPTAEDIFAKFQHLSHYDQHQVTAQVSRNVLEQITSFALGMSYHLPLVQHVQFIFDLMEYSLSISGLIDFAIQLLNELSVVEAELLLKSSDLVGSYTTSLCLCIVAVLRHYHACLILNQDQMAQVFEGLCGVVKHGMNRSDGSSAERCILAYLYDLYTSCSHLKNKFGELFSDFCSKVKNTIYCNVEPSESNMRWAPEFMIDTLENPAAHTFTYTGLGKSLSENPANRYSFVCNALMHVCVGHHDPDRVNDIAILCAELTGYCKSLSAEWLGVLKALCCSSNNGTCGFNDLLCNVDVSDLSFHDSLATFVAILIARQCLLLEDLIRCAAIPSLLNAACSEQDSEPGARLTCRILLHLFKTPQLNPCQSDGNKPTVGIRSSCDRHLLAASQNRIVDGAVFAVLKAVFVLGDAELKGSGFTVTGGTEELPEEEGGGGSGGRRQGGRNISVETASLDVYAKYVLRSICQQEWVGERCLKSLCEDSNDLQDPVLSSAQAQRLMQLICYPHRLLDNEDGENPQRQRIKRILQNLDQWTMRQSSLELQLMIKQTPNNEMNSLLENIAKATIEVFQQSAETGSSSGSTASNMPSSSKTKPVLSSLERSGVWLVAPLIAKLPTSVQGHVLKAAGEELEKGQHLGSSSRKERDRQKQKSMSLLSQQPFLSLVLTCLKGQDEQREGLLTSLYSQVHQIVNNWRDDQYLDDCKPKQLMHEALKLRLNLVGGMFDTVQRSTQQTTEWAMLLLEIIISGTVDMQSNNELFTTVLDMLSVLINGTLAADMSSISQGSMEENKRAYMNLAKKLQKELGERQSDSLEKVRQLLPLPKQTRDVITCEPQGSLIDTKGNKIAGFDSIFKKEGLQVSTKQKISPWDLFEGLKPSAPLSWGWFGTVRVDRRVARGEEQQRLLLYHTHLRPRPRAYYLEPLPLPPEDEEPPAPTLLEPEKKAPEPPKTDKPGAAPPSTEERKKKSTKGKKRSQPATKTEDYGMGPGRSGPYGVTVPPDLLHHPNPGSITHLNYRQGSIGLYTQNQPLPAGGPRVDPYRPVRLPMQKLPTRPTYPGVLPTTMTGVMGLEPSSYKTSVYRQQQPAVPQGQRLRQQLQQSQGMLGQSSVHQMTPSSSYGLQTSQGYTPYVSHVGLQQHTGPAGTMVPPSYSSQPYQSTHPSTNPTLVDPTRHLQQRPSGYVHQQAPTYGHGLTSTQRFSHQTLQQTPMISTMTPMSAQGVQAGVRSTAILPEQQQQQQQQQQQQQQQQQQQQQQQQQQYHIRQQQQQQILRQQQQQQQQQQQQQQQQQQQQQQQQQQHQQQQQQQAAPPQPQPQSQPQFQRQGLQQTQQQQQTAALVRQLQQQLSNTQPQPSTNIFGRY
The next assay addresses MED12L (endogenous) (human (endogenous in 293-F), UniProt Q86YW9 1-2145). Put plainly: cross-linking.
In the assay “MED14 (endogenous)” the target is B5. Kind of assay: cryo-EM structure.
The target in assay [2] is T1, MED13 (endogenous). Kind of assay: cryo-EM structure.
The target of assay [3] is recombinant human CDK8-Flag (baculovirus) (human, UniProt P49336 1-464). Kind of assay: cryo-EM structure.
Sequence of recombinant human CDK8-Flag (baculovirus) (P49336 whole entry): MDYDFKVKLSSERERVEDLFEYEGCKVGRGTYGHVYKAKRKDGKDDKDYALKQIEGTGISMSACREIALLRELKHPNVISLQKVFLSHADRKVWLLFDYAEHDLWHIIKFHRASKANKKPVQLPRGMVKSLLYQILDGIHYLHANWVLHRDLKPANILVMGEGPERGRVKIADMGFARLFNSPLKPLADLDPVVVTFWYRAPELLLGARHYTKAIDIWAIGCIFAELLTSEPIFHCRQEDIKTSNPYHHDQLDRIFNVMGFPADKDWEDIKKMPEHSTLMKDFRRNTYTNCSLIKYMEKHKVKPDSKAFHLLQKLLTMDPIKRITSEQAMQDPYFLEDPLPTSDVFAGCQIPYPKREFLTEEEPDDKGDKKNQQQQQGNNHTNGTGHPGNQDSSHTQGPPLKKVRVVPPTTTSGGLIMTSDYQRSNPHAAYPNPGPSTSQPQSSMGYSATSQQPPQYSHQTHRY
Assay [4] has as its target recombinant human MED12-HA (baculovirus) (human, UniProt Q93074 1-2177). Kind of assay: cryo-EM structure.

Sequence of MED13L (endogenous) (Q71F56 whole entry): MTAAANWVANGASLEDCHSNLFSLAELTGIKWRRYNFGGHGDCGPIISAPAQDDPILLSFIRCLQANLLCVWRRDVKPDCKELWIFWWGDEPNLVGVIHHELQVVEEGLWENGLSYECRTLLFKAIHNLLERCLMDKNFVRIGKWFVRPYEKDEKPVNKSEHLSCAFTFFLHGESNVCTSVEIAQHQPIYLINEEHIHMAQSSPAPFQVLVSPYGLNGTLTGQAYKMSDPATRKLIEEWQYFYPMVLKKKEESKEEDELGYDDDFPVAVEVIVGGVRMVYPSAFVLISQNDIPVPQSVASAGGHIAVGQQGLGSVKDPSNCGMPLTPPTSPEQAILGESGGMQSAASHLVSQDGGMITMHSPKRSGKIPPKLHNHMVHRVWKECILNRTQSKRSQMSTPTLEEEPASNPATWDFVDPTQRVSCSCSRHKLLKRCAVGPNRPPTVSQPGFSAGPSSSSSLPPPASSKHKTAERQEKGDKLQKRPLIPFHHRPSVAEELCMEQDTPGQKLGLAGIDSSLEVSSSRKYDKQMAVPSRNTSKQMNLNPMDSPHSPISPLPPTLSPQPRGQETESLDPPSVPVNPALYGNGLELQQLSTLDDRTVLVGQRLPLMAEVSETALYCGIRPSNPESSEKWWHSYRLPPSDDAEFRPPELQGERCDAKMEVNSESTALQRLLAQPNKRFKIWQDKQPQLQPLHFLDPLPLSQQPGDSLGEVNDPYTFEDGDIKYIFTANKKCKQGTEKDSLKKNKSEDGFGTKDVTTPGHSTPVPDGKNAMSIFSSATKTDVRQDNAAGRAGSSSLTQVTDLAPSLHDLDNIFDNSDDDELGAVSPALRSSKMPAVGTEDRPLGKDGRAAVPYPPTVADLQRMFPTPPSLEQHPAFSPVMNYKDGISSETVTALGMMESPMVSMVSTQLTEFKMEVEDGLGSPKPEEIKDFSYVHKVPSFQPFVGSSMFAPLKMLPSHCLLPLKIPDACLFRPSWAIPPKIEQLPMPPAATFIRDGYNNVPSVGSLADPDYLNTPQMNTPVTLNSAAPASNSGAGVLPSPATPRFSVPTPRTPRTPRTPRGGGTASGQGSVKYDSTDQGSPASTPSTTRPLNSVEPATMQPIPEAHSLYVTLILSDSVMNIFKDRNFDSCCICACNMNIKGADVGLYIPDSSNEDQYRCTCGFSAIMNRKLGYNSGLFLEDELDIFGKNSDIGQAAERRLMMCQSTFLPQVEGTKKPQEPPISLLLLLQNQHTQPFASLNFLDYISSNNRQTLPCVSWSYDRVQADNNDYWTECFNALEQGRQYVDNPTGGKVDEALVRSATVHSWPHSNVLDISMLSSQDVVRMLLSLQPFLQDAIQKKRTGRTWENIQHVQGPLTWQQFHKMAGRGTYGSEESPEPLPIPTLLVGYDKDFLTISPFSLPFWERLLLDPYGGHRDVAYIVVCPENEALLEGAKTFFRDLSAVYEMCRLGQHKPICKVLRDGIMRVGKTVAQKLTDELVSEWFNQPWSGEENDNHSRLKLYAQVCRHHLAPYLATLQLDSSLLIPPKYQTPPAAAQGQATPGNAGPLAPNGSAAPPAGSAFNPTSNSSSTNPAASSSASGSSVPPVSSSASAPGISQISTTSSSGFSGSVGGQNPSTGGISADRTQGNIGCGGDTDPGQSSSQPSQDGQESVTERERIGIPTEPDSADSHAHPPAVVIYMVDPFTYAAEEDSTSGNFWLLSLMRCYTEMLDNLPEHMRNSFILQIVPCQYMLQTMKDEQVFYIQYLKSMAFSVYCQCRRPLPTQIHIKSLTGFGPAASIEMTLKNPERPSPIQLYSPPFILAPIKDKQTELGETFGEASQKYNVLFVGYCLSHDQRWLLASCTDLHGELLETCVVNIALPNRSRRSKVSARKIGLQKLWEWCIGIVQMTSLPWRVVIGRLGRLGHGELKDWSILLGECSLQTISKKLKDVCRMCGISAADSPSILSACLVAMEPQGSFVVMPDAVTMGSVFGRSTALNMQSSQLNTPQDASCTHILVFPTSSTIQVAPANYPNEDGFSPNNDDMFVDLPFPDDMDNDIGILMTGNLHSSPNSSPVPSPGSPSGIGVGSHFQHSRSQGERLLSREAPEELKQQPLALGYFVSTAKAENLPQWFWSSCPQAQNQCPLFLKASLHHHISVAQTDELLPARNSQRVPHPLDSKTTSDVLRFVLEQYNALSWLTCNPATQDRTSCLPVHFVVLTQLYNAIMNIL
Sequence of recombinant human MED12-HA (baculovirus) (Q93074 whole entry): as the sequence (Q93074 whole entry) above

B1: MED31 (endogenous) (natural protein)
chain: MAAAVAMETDDAGNRLRFQLELEFVQCLANPNYLNFLAQRGYFKDKAFVNYLKYLLYWKDPEYAKYLKYPQCLHMLELLQYEHFRKELVNAQCAKFIDEQQILHWQHYSRKRMRLQQALAEQQQQNNTSGK
As for B1, in the assay with MED13 (endogenous) [1], the binding result was “binds”.

B2: MED17 (endogenous) (natural protein)
chain: MSGVRAVRISIESACEKQVHEVGLDGTETYLPPLSMSQNLARLAQRIDFSQGSGSEEEEAAGTEGDAQEWPGAGSSADQDDEEGVVKFQPSLWPWDSVRNNLRSALTEMCVLYDVLSIVRDKKFMTLDPVSQDALPPKQNPQTLQLISKKKSLAGAAQILLKGAERLTKSVTENQENKLQRDFNSELLRLRQHWKLRKVGDKILGDLSYRSAGSLFPHHGTFEVIKNTDLDLDKKIPEDYCPLDVQIPSDLEGSAYIKVSIQKQAPDIGDLGTVNLFKRPLPKSKPGSPHWQTKLEAAQNVLLCKEIFAQLSREAVQIKSQVPHIVVKNQIISQPFPSLQLSISLCHSSNDKKSQKFATEKQCPEDHLYVLEHNLHLLIREFHKQTLSSIMMPHPASAPFGHKRMRLSGPQAFDKNEINSLQSSEGLLEKIIKQAKHIFLRSRAAATIDSLASRIEDPQIQAHWSNINDVYESSVKVLITSQGYEQICKSIQLQLNIGVEQIRVVHRDGRVITLSYQEQELQDFLLSQMSQHQVHAVQQLAKVMGWQVLSFSNHVGLGPIESIGNASAITVASPSGDYAISVRNGPESGSKIMVQFPRNQCKDLPKSDVLQDNKWSHLRGPFKEVQWNKMEGRNFVYKMELLMSALSPCLL
As for B2, the binding result in the assay with MED13L (endogenous) is “binds”.

B3: MED10 (endogenous) (natural protein)
chain: MAEKFDHLEEHLEKFVENIRQLGIIVSDFQPSSQAGLNQKLNFIVTGLQDIDKCRQQLHDITVPLEVFEYIDQGRNPQLYTKECLERALAKNEQVKGKIDTMKKFKSLLIQELSKVFPEDMAKYRSIRGEDHPPS
For B3, the binding result with MED12 (endogenous), in the assay with MED13 (endogenous) [1], with MED12L (endogenous) and with MED14 (endogenous) was “binds” in each case.

B4: MED6 (endogenous) (natural protein)
chain: MAAVDIRDNLLGISWVDSSWIPILNSGSVLDYFSERSNPFYDRTCNNEVVKMQRLTLEHLNQMVGIEYILLHAQEPILFIIRKQQRQSPAQVIPLADYYIIAGVIYQAPDLGSVINSRVLTAVHGIQSAFDEAMSYCRYHPSKGYWWHFKDHEEQDKVRPKAKRKEEPSSIFQRQRVDALLLDLRQKFPPKFVQLKPGEKPVPVDQTKKEAEPIPETVKPEEKETTKNVQQTVSAKGPPEKRMRLQ
For the molecule B4, the binding result in the assay with MED13 (endogenous) [1] and in the assay with MED13L (endogenous) was “binds” each time.

Consider B5, for which, in the assay with MED13L (endogenous), the binding result is “binds”.

B6: MED18 (endogenous) (natural protein)
chain: MEAPPVTMMPVTGGTINMMEYLLQGSVLDHSLESLIHRLRGLCDNMEPETFLDHEMVFLLKGQQASPFVLRARRSMDRAGAPWHLRYLGQPEMGDKNRHALVRNCVDIATSENLTDFLMEMGFRMDHEFVAKGHLFRKGIMKIMVYKIFRILVPGNTDSTEALSLSYLVELSVVAPAGQDMVSDDMKNFAEQLKPLVHLEKIDPKRLM
With B6, the binding result with MED13L (endogenous) is reported as “binds”.

B7: MED19 (endogenous) (natural protein)
chain: MENFTALFGAQADPPPPPTALGFGPGKPPPPPPPPAGGGPGTAPPPTAATAPPGADKSGAGCGPFYLMRELPGSTELTGSTNLITHYNLEQAYNKFCGKKVKEKLSNFLPDLPGMIDLPGSHDNSSLRSLIEKPPILSSSFNPITGTMLAGFRLHTGPLPEQCRLMHIQPPKKKNKHKHKQSRTQDPVPPETPSDSDHKKKKKKKEEDPDRKRKKKEKKKKKNRHSPDHPGMGSSQASSSSSLR
As for B7, the binding result with MED12 (endogenous), in the assay with MED14 (endogenous) and in the assay with MED13 (endogenous) [2] was “binds” in each case.

B8: recombinant human CCNC-6xHis (baculovirus) (natural protein)
chain: MAGNFWQSSHYLQWILDKQDLLKERQKDLKFLSEEEYWKLQIFFTNVIQALGEHLKLRQQVIATATVYFKRFYARYSLKSIDPVLMAPTCVFLASKVEEFGVVSNTRLIAAATSVLKTRFSYAFPKEFPYRMNHILECEFYLLELMDCCLIVYHPYRPLLQYVQDMGQEDMLLPLAWRIVNDTYRTDLCLLYPPFMIALACLHVACVVQQKDARQWFAELSVDMEKILEIIRVILKLYEQWKNFDERKEMATILSKMPKPKPPPNSEGEQGPNGSQNSSYSQS
On to B8, for which the binding result in assay [3] and in assay [4] was “binds” throughout.

B9: CCNC (endogenous) (natural protein)
chain: MAGNFWQSSHYLQWILDKQDLLKERQKDLKFLSEEEYWKLQIFFTNVIQALGEHLKLRQQVIATATVYFKRFYARYSLKSIDPVLMAPTCVFLASKVEEFGVVSNTRLIAAATSVLKTRFSYAFPKEFPYRMNHILECEFYLLELMDCCLIVYHPYRPLLQYVQDMGQEDMLLPLAWRIVNDTYRTDLCLLYPPFMIALACLHVACVVQQKDARQWFAELSVDMEKILEIIRVILKLYEQWKNFDERKEMATILSKMPKPKPPPNSEGEQGPNGSQNSSYSQS
Regarding B9, the binding result with MED12 (endogenous) is “binds”.

B10: MED22 (endogenous) (natural protein)
chain: MAQQRALPQSKETLLQSYNKRLKDDIKSIMDNFTEIIKTAKIEDETQVSRATQGEQDNYEMHVRAANIVRAGESLMKLVSDLKQFLILNDFPSVNEAIDQRNQQLRTLQEECDRKLITLRDEISIDLYELEEEYYSSSSSLCEANDLPLCEAYGRLDLDTDSADGLSAPLLASPEPSAGPLQVAAPAHSHAGGPGPTEHA
Regarding B10, in the assay with MED13L (endogenous), the binding result was “binds”.

The values above are taken from article doi:10.1101/2024.07.01.601608 (bioRxiv, 2024).
